Target: thrombin (UniProt P00734;P00734 328-363;364-622)
Experiment: etched fiber Bragg grating biosensor (immobilized aptamer); thrombin 10, 20, 40, 80 nM; 5 mM MgCl2; Affinity buffer 50 mM Tris-HCl pH 7.4, 250 mM NaCl, 5 mM MgCl2; 2 h incubation; surface blocked with 1% BSA; temperature not stated

B1: amine-modified thrombin binding aptamer (29-mer with T5 spacer) (ssDNA)
DNA: TTTTTAGTCCGTGGTAGGGCAGGTTGGGGTGACT
modifications: 5' amino C6 (AmC6F)
B1: binds.
